Sequences and labels used below:
B1: chimeric antibody F03 (antibody, human IgG4 S228P, kappa, V domains shown)
VH: QVQLQQPGAELVKPGASVKLSCKTSGYTFTNYWMYWVKHRPGRGLEWIGRIAPSSGATKYNEKFKNKATLTVDKPSSTAYMQLSSLTSEDSAVYYCARSGIYYDYDWFFDVSGTGTTVTVSS
VL: DIQMTQSPSSLSASLGGKVTITCKASQDINKYIGWYQHAPGKGPRLLIHYTSTLQPGIPSRFSGSGSGRDYSLSISNLEPEDIATYYCLQYHALLFTFGSGTKLELKR
notes: Variable regions of murine mF03 on human IgG4 (S228P) and human kappa constant regions; expressed in CHO-S cells
B2: humanized antibody F03-12 (antibody, human IgG4 S228P, kappa, V domains shown)
VH: QVQLVQSGAEVKKPGASVKVSCKASGYTFTNYWMYWVRQAPGQGLEWMGRIAPSSGATKYNEKFKNRVTLTVDTSISTAYMELSRLRSDDTAVYYCARSGIYYDYDWFFDVWGQGTTVTVSS
VL: DIQMTQSPSSLSASVGDRVTITCKASQDINKYIGWYQQKPGKAPKLLIHYTSTLQPGVPSRFSGSGSGRDYTFTISSLQPEDIATYYCLQYHALLFTFGQGTKLEIKR
notes: Human IgG4 (S228P) and human kappa constant regions
B3: humanized antibody F03-8 (antibody, human IgG4 S228P, kappa, V domains shown)
VH: B2 VH with M48I, V68A
VL: B2 VL with R69T, Y71F
notes: as for B2
B4: humanized antibody F03-7 (antibody, human IgG4 S228P, kappa, V domains shown)
VH: B2 VH
VL: B2 VL with R69T, Y71F
notes: as for B2
B5: humanized antibody F03-11 (antibody, human IgG4 S228P, kappa, V domains shown)
VH: B2 VH with L70M, V72R
VL: B2 VL
notes: as for B2
B6: humanized antibody F03-14 (antibody, human IgG4 S228P, kappa)
heavy: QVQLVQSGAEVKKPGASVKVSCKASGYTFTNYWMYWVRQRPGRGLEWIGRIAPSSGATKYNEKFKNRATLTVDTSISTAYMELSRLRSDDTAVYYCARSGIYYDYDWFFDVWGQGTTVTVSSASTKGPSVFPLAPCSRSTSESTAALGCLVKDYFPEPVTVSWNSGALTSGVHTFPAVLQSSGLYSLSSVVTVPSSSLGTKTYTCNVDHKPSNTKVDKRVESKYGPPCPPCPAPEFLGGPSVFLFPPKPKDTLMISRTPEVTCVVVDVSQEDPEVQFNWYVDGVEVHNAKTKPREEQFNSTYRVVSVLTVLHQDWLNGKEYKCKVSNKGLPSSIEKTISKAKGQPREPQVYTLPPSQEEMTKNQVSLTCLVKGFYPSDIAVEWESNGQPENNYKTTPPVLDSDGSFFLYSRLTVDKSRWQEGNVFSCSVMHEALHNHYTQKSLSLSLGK
light: DIQMTQSPSSLSASVGDRVTITCKASQDINKYIGWYQQKPGKAPKLLIHYTSTLQPGVPSRFSGSGSGRDYTFTISSLQPEDIATYYCLQYHALLFTFGQGTKLEIKRTVAAPSVFIFPPSDEQLKSGTASVVCLLNNFYPREAKVQWKVDNALQSGNSQESVTEQDSKDSTYSLSSTLTLSKADYEKHKVYACEVTHQGLSSPVTKSFNRGEC
notes: as for B2
B7: humanized antibody F03-15 (antibody, human IgG4 S228P, kappa)
heavy: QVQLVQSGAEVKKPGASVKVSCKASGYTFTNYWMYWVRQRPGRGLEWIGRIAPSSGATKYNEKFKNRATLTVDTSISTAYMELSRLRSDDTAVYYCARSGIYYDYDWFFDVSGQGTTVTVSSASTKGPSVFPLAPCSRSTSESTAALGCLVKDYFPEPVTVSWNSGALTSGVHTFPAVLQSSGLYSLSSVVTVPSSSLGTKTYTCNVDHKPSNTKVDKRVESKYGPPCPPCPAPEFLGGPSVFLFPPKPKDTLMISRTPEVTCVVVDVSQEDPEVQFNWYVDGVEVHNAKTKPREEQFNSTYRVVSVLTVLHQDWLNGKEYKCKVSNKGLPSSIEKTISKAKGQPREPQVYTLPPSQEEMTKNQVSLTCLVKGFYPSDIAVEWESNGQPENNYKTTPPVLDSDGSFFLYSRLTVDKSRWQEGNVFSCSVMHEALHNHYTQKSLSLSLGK
light: B6 light
notes: as for B2
B8: humanized antibody F03-13 (antibody, human IgG4 S228P, kappa, V domains shown)
VH: B2 VH with M48I, V68A
VL: B2 VL
notes: as for B2
B9: humanized antibody F03-6 (antibody, human IgG4 S228P, kappa, V domains shown)
VH: B2 VH with L70M, V72R
VL: B2 VL with R69T, Y71F
notes: Human IgG4 (S228P) heavy chain constant region and human kappa constant region

Substitutions are numbered along the chain they refer to. Names may count otherwise.

The first test concerns the target T1, human CD39 on the cell surface (human, UniProt P49961 1-510).
T1 construct: whole, on cells; also called hCD39; NTPDase 1
T1 sequence (looked up): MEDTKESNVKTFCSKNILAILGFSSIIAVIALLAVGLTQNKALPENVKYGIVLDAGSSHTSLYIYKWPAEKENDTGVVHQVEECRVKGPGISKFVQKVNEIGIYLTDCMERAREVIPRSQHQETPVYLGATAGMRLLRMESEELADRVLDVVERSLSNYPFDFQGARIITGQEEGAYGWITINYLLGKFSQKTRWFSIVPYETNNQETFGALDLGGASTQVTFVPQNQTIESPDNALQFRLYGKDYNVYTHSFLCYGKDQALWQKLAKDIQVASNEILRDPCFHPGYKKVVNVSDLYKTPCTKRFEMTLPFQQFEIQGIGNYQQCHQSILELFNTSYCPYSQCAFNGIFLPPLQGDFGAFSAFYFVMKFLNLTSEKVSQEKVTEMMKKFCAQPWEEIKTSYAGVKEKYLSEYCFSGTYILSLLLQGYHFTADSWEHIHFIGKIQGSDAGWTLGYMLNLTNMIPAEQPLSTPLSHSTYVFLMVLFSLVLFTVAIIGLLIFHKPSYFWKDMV
Put plainly: FACS on CHOK1-hCD39 cells, FITC-labelled goat anti-human IgG Fc secondary antibody, mean fluorescence intensity (MFI). As for the experimental part:
The binding of the chimeric antibody F03 of the present invention to CD39 on the cell membrane surface was assayed by FACS. Specifically, CHOK1-hCD39 cells were collected and added to a 96-well plate at 1-3×10⁵ cells/well, the serially diluted chimeric antibody F03 (diluted with 1×PBS to 16.7 μg/mL as an initial concentration, 3-fold gradient dilution) was added, and the mixture was incubated at 4° C. for 30 min; after washing with PBS, an FITC-labeled goat anti-human IgG Fc secondary antibody (Jackson Immunoresearch, 109095008) diluted at 1:200 was added, and the resulting mixture was incubated at 4° C. for 30 min; after washing with PBS, the cell fluorescence intensity was detected using an FACS instrument (Beckman). Data were processed by GraphPad software.
In turn, B1 yielded an EC50 of 2.19 µg/mL.

The next test has as its target T1, human CD39 on the cell surface. Put plainly: cell-based or functional assay.
On to B2, for which the “Enzymatic activity inhibition (EC50 nM)” value stood at 0.06 nM.
With B3, the “Enzymatic activity inhibition (EC50 nM)” value was determined as 0.06 nM.
For B4, the “Enzymatic activity inhibition (EC50 nM)” value came out at 0.15 nM.
Take B5: the “Enzymatic activity inhibition (EC50 nM)” value stood at 0.03 nM.
B6: the “Enzymatic activity inhibition (EC50 nM)” value was 0.05 nM.
Regarding B7, the “Enzymatic activity inhibition (EC50 nM)” value came out at 0.02 nM.
Consider B8, for which the “Enzymatic activity inhibition (EC50 nM)” value came out at 0.09 nM.
As to B9, the “Enzymatic activity inhibition (EC50 nM)” value was determined as 0.09 nM.
Take B1: the “Enzymatic activity inhibition (EC50 nM)” value stood at 0.09 nM.

Another test concerns the target T2, hCD39-ECD-His (ACRO, CD9-H52H4) (human, UniProt P49961 38-478).
T2 construct: extracellular domain; Bought protein; also called recombinant antigen; target antigen; not shown: His tag
T2 sequence (looked up): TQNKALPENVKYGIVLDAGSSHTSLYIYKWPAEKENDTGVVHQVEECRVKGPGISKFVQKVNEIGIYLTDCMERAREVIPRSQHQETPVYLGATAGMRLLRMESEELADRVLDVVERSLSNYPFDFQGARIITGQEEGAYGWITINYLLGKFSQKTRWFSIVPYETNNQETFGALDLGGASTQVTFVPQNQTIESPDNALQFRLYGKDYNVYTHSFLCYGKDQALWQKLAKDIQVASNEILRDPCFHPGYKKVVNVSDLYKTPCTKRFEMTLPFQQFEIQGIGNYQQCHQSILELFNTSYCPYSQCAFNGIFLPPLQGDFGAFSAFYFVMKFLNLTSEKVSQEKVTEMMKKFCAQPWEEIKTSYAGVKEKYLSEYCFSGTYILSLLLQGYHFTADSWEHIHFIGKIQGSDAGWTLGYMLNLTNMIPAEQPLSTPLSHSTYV
Briefly: SPR, Biacore 8K, antibody captured by anti-human IgG Fc, hCD39-ECD-His as analyte. As for the experimental part: The binding kinetics between humanized antibodies and a recombinant antigen were tested using Biacore 8K (GE, biomolecule interaction analyzer). Specifically, an anti-human IgG Fc antibody was directly immobilized on a biosensor chip to capture a test antibody. The antigen hCD39-ECD-His (ACRO, CD9-H52H4) was used as the mobile phase, and 7 concentration gradients (at an initial concentration of 200 nM, 2-fold gradient dilution) were used. The association rate constant ka (M⁻¹ s⁻¹) and dissociation rate constant kd (s⁻¹) were determined. Then, based on the formula KD=kd/ka and the kinetic rate constants, the equilibrium dissociation constant KD (M) of the reaction between the antibody and the relevant target protein was calculated. The humanized antibodies of the present invention maintained high affinity of the chimeric antibody F03 for the target antigen.
Background: In SPR one partner is held on a chip, and binding of the other changes the refractive index at the surface.
B2 came in with a Kd of 3.68 nM, a koff of 0.000331 s⁻¹ and a kon of 89900 M⁻¹ s⁻¹.
With B5, the Kd worked out at 4.2 nM, the koff is 0.000336 s⁻¹ and the kon turned out to be 80100 M⁻¹ s⁻¹.
Molecule B6 showed a Kd of 4.43 nM, a koff of 0.00031 s⁻¹ and a kon of 69800 M⁻¹ s⁻¹.
The corresponding values for B7 are 3.33 nM, 0.000176 s⁻¹ and 52800 M⁻¹ s⁻¹.
For the molecule B1, binding was put at a Kd of 2.67 nM, the koff amounted to 0.000252 s⁻¹ and the kon came out at 94300 M⁻¹ s⁻¹.

A further test has as its target T1, human CD39 on the cell surface. Put plainly: FACS on SK-MEL-28 cells (natural human CD39).
B2 came in with a concentration giving a half-maximal response (EC50) of 1.12 nM.
For the molecule B3, the midpoint of the response, the EC50, lay at 1 nM.
As for B4, the response was half-maximal at 0.89 nM (EC50).
The molecule B5 came in with an EC50 of 0.94 nM.
Consider B6, for which the EC50 turned out to be 0.79 nM.
B7: a half-maximal effect (EC50) was put at 1.11 nM.
Regarding B8, the EC50 was found to be 1 nM.
On to B9, for which the EC50 was 1.27 nM.
The same measure, in the same setting: the same measure for B1: 2.07 nM.

In general, EC50 refers to the concentration needed to bring the measured effect to its halfway point. Low values mean an effect from little substance, high ones a need for much substance. One may read the Kd as a measure of binding affinity in units of concentration. Low readings indicate higher affinity, high ones lower affinity. A word on the koff: it is the first-order rate constant of dissociation. A word on the kon: it is the second-order rate constant of association. Read a low kon as slow association.
